Laboratory results reported in PMC2987765.

Target: Flag-tagged full length Ack1 (human) (UniProt Q07912)
Test: co-IP; Cos7 cells transfected with FLAG-Ack1 alone or with HA-NKD or HA-KD; RIPA lysates (450-750 ug) incubated overnight at 4°C with FLAG M2 affinity gel, washed 5 times with RIPA buffer; blots with anti-HA and anti-FLAG; densitometry ratio HA-Ack1/Flag-Ack1

Q: For “HA-tagged Ack1 NKD (amino terminus plus kinase domain) (from UniProt Q07912 1-385) (domain or fragment)”, which fold co-immunoprecipitation against HA-KD is on record?
A: Its fold co-immunoprecipitation against HA-KD is 3 fold.
